According to patent publication US20190300590A1 (PROTAGONIST THERAPEUTICS, published 2019):
*1 amine or outer side, *2 acyl side, *3 side chain or, on linkers, in order; H or OH if unused. Bridges are numbered along the chain shown (N, C = ends). [ ]: non-standard residue; d: D form. Phe(4-(2-acetylaminoethoxy)) = 4-(2-acetamidoethoxy)-phenylalanine, CC(=O)NCCOc1ccc(C[C@H](N[*:1])C(=O)[*:2])cc1; 1Nal = N[C@@H](Cc1cccc2ccccc12)C(=O)O; 2Nal = N[C@@H](Cc1ccc2ccccc2c1)C(=O)O; AEF = NCCOc1ccc(C[C@H](N)C(=O)O)cc1; Suc = O=C(CCC(=O)[*:2])[*:1]; αMeK = C[C@](N)(CCCCN)C(=O)O; Dab = NCC[C@H](N)C(=O)O; Abu = CC[C@H](N)C(=O)O; Aib = CC(C)(N)C(=O)O; PEG1 = NCCOCCC(=O)O; Sar = CNCC(=O)O

T1: IL23R_huFC (human, UniProt Q5VWK5 24-353)
T1 sequence (looked up): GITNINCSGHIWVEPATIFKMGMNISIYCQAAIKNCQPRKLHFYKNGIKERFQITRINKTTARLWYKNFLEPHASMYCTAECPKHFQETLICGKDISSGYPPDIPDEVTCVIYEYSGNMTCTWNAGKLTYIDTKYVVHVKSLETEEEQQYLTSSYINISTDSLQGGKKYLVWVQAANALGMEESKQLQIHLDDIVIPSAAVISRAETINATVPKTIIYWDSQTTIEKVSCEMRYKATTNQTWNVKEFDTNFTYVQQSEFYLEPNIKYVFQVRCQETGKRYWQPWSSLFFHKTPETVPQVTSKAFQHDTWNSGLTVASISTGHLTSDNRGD

T2: IL-23R on human cells (IL-23R-expressing DB cells; human NK cells) (human, UniProt Q5VWK5 24-629)
T2 sequence (looked up): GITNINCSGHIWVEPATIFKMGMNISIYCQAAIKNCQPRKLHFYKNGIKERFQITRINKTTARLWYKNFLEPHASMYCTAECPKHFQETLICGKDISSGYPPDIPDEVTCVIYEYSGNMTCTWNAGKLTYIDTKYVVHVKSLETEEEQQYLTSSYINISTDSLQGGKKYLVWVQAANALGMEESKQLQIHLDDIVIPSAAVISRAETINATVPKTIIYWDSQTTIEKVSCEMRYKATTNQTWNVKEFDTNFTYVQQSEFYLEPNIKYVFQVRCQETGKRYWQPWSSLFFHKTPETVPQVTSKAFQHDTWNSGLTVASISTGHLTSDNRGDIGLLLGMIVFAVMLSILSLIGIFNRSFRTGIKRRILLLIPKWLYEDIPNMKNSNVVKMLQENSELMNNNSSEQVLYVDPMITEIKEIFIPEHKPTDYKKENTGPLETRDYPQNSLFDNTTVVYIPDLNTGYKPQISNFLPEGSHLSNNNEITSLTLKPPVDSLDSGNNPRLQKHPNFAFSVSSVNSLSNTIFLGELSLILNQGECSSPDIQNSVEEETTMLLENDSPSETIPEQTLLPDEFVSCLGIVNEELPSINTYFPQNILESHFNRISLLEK

T3: IL23R_huFC (human, UniProt Q5VWK5 24-353)
T3 sequence (looked up): T1 sequence (looked up)

B1: Ac-[(D)Lys]-CRDWQCY-[1-Nal]-HTH-[ Sarc]-[AEP]-(D)Arg]-NH2 (peptide)
peptide: Ac-[dK]CRDWQCY[1Nal]HTH[Sar][PEG1][dR]-NH2
modifications: disulfide 2-7
SMILES: CC(=O)N[C@H](CCCCN)C(=O)N[C@H]1CSSC[C@@H](C(=O)N[C@@H](Cc2ccc(O)cc2)C(=O)N[C@@H](Cc2cccc3ccccc23)C(=O)N[C@@H](Cc2c[nH]cn2)C(=O)N[C@H](C(=O)N[C@@H](Cc2c[nH]cn2)C(=O)N(C)CC(=O)NCCOCCC(=O)N[C@H](CCCNC(=N)N)C(N)=O)[C@@H](C)O)NC(=O)[C@H](CCC(N)=O)NC(=O)[C@H](Cc2c[nH]c3ccccc23)NC(=O)[C@H](CC(=O)O)NC(=O)[C@H](CCCNC(=N)N)NC1=O
B2: Ac-CADWVCY-[1-Nal]-VTFG-NH2 (peptide)
peptide: Ac-CADWVCY[1Nal]VTFG-NH2
modifications: disulfide 1-6
SMILES: CC(=O)N[C@H]1CSSC[C@@H](C(=O)N[C@@H](Cc2ccc(O)cc2)C(=O)N[C@@H](Cc2cccc3ccccc23)C(=O)N[C@H](C(=O)N[C@H](C(=O)N[C@@H](Cc2ccccc2)C(=O)NCC(N)=O)[C@@H](C)O)C(C)C)NC(=O)[C@H](C(C)C)NC(=O)[C@H](Cc2c[nH]c3ccccc23)NC(=O)[C@H](CC(=O)O)NC(=O)[C@H](C)NC1=O

These binders were tested against Rat IL-23R_huFC (rat) (assay: rat ELISA vs IL-23).

| IC50 [nM] | Binder |
| --- | --- |
| < 10 | Ac-[Abu]QTWQC[AEF][2Nal][αMeK]K(Ac)NG-NH2 (thioether 1-6) [Ac-Cyclo-[[Abu]-QTWQC]-[Phe[4-(2-aminoethoxy)]]-[2-Nal]-[α-MeLys]-[Lys(Ac)]-NG-NH2] |
| < 10 | FXQTWQCFXKENN (as bracketed in name; thioether cyclo) [Ac-F-Cyclo-[[Abu]-QTWQC]]-[Phe[4-(2-aminoethoxy)]]-[2-Nal]-[α-MeLys]-ENN-NH2] |
| < 10 | TXQTWQCFXKENN (as bracketed in name; thioether cyclo) [Ac-T-Cyclo-[[Abu]-QTWQC]-[Phe[4-(2-aminoethoxy)]]-[2-Nal]-[α-MeLys]-ENN-NH2] |
| < 10 | Ac-[Abu]QTWQC[Phe(4-(2-acetylaminoethoxy))][2Nal][αMeK](Ac)K(Ac)NG-NH2 (thioether 1-6) [Ac-Cyclo-[[Abu]-QTWQC]-[Phe[4-(2-(acetyl-aminoethoxy)]]-[2-Nal]-[α-MeLys(Ac)]-[Lys(Ac)]-NG-NH2] |
| < 10 | Suc-[Abu]QTWQC[AEF][2Nal][αMeK]K(Ac)NG-NH2 (thioether 1-6) [Succicinyl-Cyclo-[[Abu]-QTWQC]-[Phe[4-(2-aminoethoxy)]]-[2-Nal]-[α-MeLys]-[Lys(Ac)]-NG-NH2] |
| < 10 | Ac-[Abu]QTWQC[Phe(4-(2-acetylaminoethoxy))][2Nal][αMeK](Ac)ENG-NH2 (thioether 1-6) [Ac-Cyclo-[[Abu]-QTWQC]-[Phe[4-(2-(acetyl-aminoethoxy)]]-[2-Nal]-[α-MeLys(Ac)]-ENG-NH2] |
| < 10 | Ac-[Abu]QTWQC[AEF][2Nal][αMeK]ENG-NH2 (thioether 1-6) [Ac-Cyclo-[[Abu]-QTWQC]-[Phe[4-(2-aminoethoxy)]]-[2-Nal]-[α-MeLys]-ENG-NH2] |
| < 10 | Ac-[Abu]QTWQC[Phe(4-(2-acetylaminoethoxy))][2Nal][αMeK](Ac)ENQ-NH2 (thioether 1-6) [Ac-Cyclo-[[Abu]-QTWQC]-[Phe[4-(2-(acetyl-aminoethoxy)]]-[2-Nal]-[α-MeLys(Ac)]-ENQ-NH2] |
| < 10 | Ac-[Abu]QTWQC[AEF][2Nal][Aib]E[Dab](Ac)G-NH2 (thioether 1-6) [Ac-Cyclo-[[Abu]-QTWQC]-[Phe[4-(2-aminoethoxy)]]-[2-Nal]-[Aib]-E-[Dab(Ac)]-G-NH2] |

The binders below were run against T1, IL23R_huFC (assay: IL23-IL23R competitive ELISA).

| IC50 [nM] | Binder |
| --- | --- |
| 500 to 1000 | Ac-GSVHCMTWECYWHTFG-NH2 (disulfide 5-10 (inferred)) [Ac-GSVHCMTWECYWHTFG-NH2] |
| 500 to 1000 | Ac-DTPRCRTWECYWHTFG-NH2 (disulfide 5-10 (inferred)) [Ac-DTPRCRTWECYWHTFG-NH2] |
| 500 to 1000 | B1 |
| 500 to 1000 | Ac-REGTCSTWKCYWHTFG-NH2 (disulfide 5-10 (inferred)) [Ac-REGTCSTWKCYWHTFG-NH2] |
| 500 to 1000 | Ac-CADWVCYWHNHSEGSG-NH2 (disulfide 1-6 (inferred)) [Ac-CADWVCYWHNHSEGSG-NH2] |
| 500 to 1000 | B2 |
| 500 to 1000 | Ac-GGGECENWECYWHTFG-NH2 (disulfide 5-10 (inferred)) [Ac-GGGECENWECYWHTFG-NH2] |

These binders were tested against T2, IL-23R on human cells … (assay: cell-based or functional assay).

| pStat3 HTRF IC50 [nM] | Binder |
| --- | --- |
| < 10 | Ac-[Abu]QTWQC[Phe(4-(2-acetylaminoethoxy))][2Nal][αMeK](Ac)ENG-NH2 (thioether 1-6) [Ac-Cyclo-[[Abu]-QTWQC]-[Phe[4-(2-(acetyl-aminoethoxy)]]-[2-Nal]-[α-MeLys(Ac)]-ENG-NH2] |
| < 10 | Ac-[Abu]QTWQC[AEF][2Nal][αMeK]ENG-NH2 (thioether 1-6) [Ac-Cyclo-[[Abu]-QTWQC]-[Phe[4-(2-aminoethoxy)]]-[2-Nal]-[α-MeLys]-ENG-NH2] |
| < 10 | Ac-[Abu]QTWQC[Phe(4-(2-acetylaminoethoxy))][2Nal][αMeK](Ac)ENQ-NH2 (thioether 1-6) [Ac-Cyclo-[[Abu]-QTWQC]-[Phe[4-(2-(acetyl-aminoethoxy)]]-[2-Nal]-[α-MeLys(Ac)]-ENQ-NH2] |
| < 10 | Ac-[Abu]QTWQC[AEF][2Nal][Aib]E[Dab](Ac)G-NH2 (thioether 1-6) [Ac-Cyclo-[[Abu]-QTWQC]-[Phe[4-(2-aminoethoxy)]]-[2-Nal]-[Aib]-E-[Dab(Ac)]-G-NH2] |

These binders were tested against T3, IL23R_huFC (assay: human ELISA vs IL-23).

| IC50 [nM] | Binder |
| --- | --- |
| < 10 | Ac-[Abu]QTWQC[Phe(4-(2-acetylaminoethoxy))][2Nal][αMeK](Ac)ENQ-NH2 (thioether 1-6) [Ac-Cyclo-[[Abu]-QTWQC]-[Phe[4-(2-(acetyl-aminoethoxy)]]-[2-Nal]-[α-MeLys(Ac)]-ENQ-NH2] |
